Measured values from patent publication US20260132180.

MMP-2 protease, sequence (P08253 110-660): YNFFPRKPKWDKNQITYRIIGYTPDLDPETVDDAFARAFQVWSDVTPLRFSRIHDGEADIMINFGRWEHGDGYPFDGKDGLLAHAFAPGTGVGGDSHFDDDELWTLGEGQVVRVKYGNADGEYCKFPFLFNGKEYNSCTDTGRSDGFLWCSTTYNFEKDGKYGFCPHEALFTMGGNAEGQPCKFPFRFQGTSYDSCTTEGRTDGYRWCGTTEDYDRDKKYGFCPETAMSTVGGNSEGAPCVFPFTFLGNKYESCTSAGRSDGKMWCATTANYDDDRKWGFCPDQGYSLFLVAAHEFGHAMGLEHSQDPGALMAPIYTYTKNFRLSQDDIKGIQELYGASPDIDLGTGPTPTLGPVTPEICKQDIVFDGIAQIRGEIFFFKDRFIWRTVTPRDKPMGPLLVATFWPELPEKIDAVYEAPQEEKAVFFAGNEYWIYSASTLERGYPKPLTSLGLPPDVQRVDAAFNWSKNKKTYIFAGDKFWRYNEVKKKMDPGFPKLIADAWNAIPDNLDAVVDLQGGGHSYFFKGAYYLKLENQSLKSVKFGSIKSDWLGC
Pro061, sequence (chain, as listed by the source): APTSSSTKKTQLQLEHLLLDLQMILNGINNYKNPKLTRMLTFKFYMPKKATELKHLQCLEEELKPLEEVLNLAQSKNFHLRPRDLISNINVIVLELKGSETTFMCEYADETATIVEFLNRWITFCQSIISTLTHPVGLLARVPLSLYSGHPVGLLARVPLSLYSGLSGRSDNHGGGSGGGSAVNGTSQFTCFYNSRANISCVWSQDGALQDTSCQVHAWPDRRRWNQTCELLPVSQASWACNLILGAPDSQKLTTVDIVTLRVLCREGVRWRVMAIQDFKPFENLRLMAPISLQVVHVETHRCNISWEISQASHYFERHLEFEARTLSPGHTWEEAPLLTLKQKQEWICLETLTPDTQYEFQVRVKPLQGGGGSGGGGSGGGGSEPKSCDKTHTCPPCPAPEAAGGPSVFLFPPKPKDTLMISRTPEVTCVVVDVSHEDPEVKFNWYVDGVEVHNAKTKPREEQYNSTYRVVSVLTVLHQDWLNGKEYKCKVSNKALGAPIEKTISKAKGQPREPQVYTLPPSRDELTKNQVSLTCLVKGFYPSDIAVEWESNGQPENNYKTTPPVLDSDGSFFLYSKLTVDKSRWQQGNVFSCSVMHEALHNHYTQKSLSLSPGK
Pro064, sequence (chain, as listed by the source): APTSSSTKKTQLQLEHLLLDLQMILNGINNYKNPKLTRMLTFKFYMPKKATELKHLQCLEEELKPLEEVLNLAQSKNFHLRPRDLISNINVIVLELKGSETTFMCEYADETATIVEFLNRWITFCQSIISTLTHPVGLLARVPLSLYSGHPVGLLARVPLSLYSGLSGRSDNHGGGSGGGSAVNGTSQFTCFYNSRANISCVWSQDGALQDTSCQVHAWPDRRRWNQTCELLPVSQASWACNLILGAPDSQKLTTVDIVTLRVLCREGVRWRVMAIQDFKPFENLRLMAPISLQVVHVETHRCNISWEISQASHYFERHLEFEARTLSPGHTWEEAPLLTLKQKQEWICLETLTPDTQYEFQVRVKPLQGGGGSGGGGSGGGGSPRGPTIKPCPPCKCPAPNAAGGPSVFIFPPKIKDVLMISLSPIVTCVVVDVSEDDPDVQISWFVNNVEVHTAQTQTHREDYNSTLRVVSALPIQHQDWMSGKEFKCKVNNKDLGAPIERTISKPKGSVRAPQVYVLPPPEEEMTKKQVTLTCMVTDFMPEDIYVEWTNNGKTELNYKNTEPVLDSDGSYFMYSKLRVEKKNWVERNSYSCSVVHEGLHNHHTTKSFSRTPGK
Pro054, sequence (chain, as listed by the source): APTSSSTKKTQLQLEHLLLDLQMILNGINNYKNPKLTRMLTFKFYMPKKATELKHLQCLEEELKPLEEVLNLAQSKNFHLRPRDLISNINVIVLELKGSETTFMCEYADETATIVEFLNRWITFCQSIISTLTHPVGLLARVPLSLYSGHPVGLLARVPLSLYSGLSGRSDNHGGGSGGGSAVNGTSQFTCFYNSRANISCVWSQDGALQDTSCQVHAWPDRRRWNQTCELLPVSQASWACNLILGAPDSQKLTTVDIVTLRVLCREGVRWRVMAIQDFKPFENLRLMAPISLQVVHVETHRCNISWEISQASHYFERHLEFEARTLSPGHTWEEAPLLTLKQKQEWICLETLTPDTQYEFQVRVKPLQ

MMP-2 protease
Percentage of cleaved protein determined using WB after incubation with activated MMP-2 protease (Pro055): Pro054, Pro055, Pro061, and Pro064 were sensitive to MMP-2 digestion and protease-dependent removal of masking and half-life extension domains
Fraction of cleaved Pro101 determined by WB (Pro101): effective linker cleavage in Pro101
Percentage of cleaved protein determined using WB after incubation with activated MMP-2 protease (Pro054): Pro054, Pro055, Pro061, and Pro064 were sensitive to MMP-2 digestion and protease-dependent removal of masking and half-life extension domains
Percentage of cleaved protein determined using WB after incubation with activated MMP-2 protease (Pro064): Pro054, Pro055, Pro061, and Pro064 were sensitive to MMP-2 digestion and protease-dependent removal of masking and half-life extension domains
Percentage of cleaved protein determined using WB after incubation with activated MMP-2 protease (Pro061): Pro054, Pro055, Pro061, and Pro064 were sensitive to MMP-2 digestion and protease-dependent removal of masking and half-life extension domains
